Laboratory results taken from patent publication US20260176254A1, “INHIBITORS OF PROSTATE SPECIFIC MEMBRANE ANTIGEN AND USE THEREOF” (SHANGHAI SINOTAU BIOTECH. CO., LTD, priority 2023, published 2026).

Columns and labels:
[1] = Tissue biodistribution in LnCAP tumor mouse model; set-up: species or system mice; conditions: male, SCID, in vivo, iv, total radioactivity
From the text: (§1) LnCAP and 22RV1 CDX xenograft tumor models were generated by inoculating 5×10^6 cells/site subcutaneously in male SCID or nude mice (Vital River), respectively. Animals were housed according to IACUC guidance and had accessed to food and water ad libitium. Animals were used for biodistribution study when the tumor dimensions reached around 0.2-0.3 cm^3. […] At each tome point, animals were sacrificed and tissues were collected, weighted, and subjected to radioactivity measurements using gamma counter. Radioactivity in the tissues was presented in % ID/g (percent of injected dose per gram).

[2] = tested on: LnCAP CDX xenograft tumor; assay: Tissue biodistribution in LnCAP tumor mouse model; set-up: species or system mice; conditions: male, SCID, in vivo, iv
From the text: as §1

In the case of `O=C(O)CN1CCN(CC(=O)O)CCN(CC(=O)NC23CCC(Nc4c(N[C@@H](Cc5c6ccccc6cc6ccccc56)C(=O)NCCCC[C@H](NC(=O)N[C@@H](CNC(=O)C(=O)O)C(=O)O)C(=O)O)c(=O)c4=O)(CC2)CC3)CCN(CC(=O)O)CC1` [[^177Lu]Lu-E8, metal not drawn], the tissue uptake dose at 2 h [1] is reported as 16.4 ± 1.14 %ID, the tissue uptake dose at 6 h [1] is reported as 4.69 ± 0.79 %ID and the tissue uptake dose at 24 h [1] is reported as 3.21 ± 2.01 %ID. The tissue uptake dose at 72 h [1] was 0.99 ± 0.2 %ID, the tissue uptake dose at 168 h [1] was 0.91 ± 0.03 %ID and the tissue to tissue ratio ([1]; T/NT ratio Tumor/Bone) was 183. For the same molecule, the tissue to tissue ratio ([1]; T/NT ratio Tumor/Salivary Gland) was 220, the tissue uptake at 2 h ([1]; Tissue biodistribution: Blood) was 0.87 ± 0.21 %ID/g and the tissue uptake at 6 h ([1]; Tissue biodistribution: Blood) was 0.16 ± 0.04 %ID/g. The tissue uptake at 24 h ([1]; Tissue biodistribution: Blood) was 0.03 ± 0.01 %ID/g, the tissue uptake at 72 h ([1]; Tissue biodistribution: Blood) was 0.03 ± 0.01 %ID/g and the tissue uptake at 168 h ([1]; Tissue biodistribution: Blood) was 0.03 ± 0.01 %ID/g. For the same molecule, the tissue uptake at 2 h ([1]; Tissue biodistribution: Bone) was 0.74 ± 0.16 %ID/g, the tissue uptake at 6 h ([1]; Tissue biodistribution: Bone) was 0.33 ± 0.11 %ID/g and the tissue uptake at 24 h ([1]; Tissue biodistribution: Bone) was 0.19 ± 0.01 %ID/g. It also gave a tissue uptake at 72 h ([1]; Tissue biodistribution: Bone) of 0.22 ± 0.02 %ID/g, a tissue uptake at 168 h ([1]; Tissue biodistribution: Bone) of 0.26 ± 0.04 %ID/g and a tissue uptake at 2 h ([1]; Tissue biodistribution: Gland) of 1.96 ± 0.74 %ID/g. It also gave a tissue uptake at 6 h ([1]; Tissue biodistribution: Gland) of 0.51 ± 0.1 %ID/g, a tissue uptake at 24 h ([1]; Tissue biodistribution: Gland) of 0.18 ± 0.04 %ID/g and a tissue uptake at 72 h ([1]; Tissue biodistribution: Gland) of 0.11 ± 0.01 %ID/g. It also gave a tissue uptake at 168 h ([1]; Tissue biodistribution: Gland) of 0.1 %ID/g, a tissue uptake at 2 h ([1]; Tissue biodistribution: Heart) of 1 ± 0.4 %ID/g and a tissue uptake at 6 h ([1]; Tissue biodistribution: Heart) of 0.26 ± 0.13 %ID/g. It also gave a tissue uptake at 24 h ([1]; Tissue biodistribution: Heart) of 0.11 %ID/g, a tissue uptake at 72 h ([1]; Tissue biodistribution: Heart) of 0.09 %ID/g and a tissue uptake at 168 h ([1]; Tissue biodistribution: Heart) of 0.11 %ID/g. It also gave a tissue uptake at 2 h ([1]; Tissue biodistribution: Kidney) of 133 ± 12.3 %ID/g, a tissue uptake at 6 h ([1]; Tissue biodistribution: Kidney) of 122 ± 20.9 %ID/g and a tissue uptake at 24 h ([1]; Tissue biodistribution: Kidney) of 15.7 ± 4.09 %ID/g. The tissue uptake at 72 h ([1]; Tissue biodistribution: Kidney) was 1.28 ± 0.08 %ID/g, the tissue uptake at 168 h ([1]; Tissue biodistribution: Kidney) was 0.69 ± 0.32 %ID/g and the tissue uptake at 2 h ([1]; Tissue biodistribution: Liver) was 0.58 ± 0.17 %ID/g. For the same molecule, the tissue uptake at 6 h ([1]; Tissue biodistribution: Liver) was 0.33 ± 0.05 %ID/g, the tissue uptake at 24 h ([1]; Tissue biodistribution: Liver) was 0.23 ± 0.03 %ID/g and the tissue uptake at 72 h ([1]; Tissue biodistribution: Liver) was 0.18 ± 0.02 %ID/g. It also gave a tissue uptake at 168 h ([1]; Tissue biodistribution: Liver) of 0.15 ± 0.03 %ID/g, a tissue uptake at 2 h ([1]; Tissue biodistribution: Lung) of 2.97 ± 0.89 %ID/g and a tissue uptake at 6 h ([1]; Tissue biodistribution: Lung) of 0.75 ± 0.14 %ID/g. For the same molecule, the tissue uptake at 24 h ([1]; Tissue biodistribution: Lung) was 0.18 ± 0.03 %ID/g, the tissue uptake at 72 h ([1]; Tissue biodistribution: Lung) was 0.08 ± 0.01 %ID/g and the tissue uptake at 168 h ([1]; Tissue biodistribution: Lung) was 0.1 ± 0.04 %ID/g. It also gave a tissue uptake at 2 h ([1]; Tissue biodistribution: Muscle) of 0.46 ± 0.09 %ID/g, a tissue uptake at 6 h ([1]; Tissue biodistribution: Muscle) of 0.14 ± 0.04 %ID/g and a tissue uptake at 24 h ([1]; Tissue biodistribution: Muscle) of 0.04 ± 0.01 %ID/g. It also gave a tissue uptake at 72 h ([1]; Tissue biodistribution: Muscle) of 0.03 %ID/g, a tissue uptake at 168 h ([1]; Tissue biodistribution: Muscle) of 0.04 ± 0.01 %ID/g and a tissue uptake at 2 h ([1]; Tissue biodistribution: Spleen) of 3.87 ± 1.15 %ID/g. The tissue uptake at 6 h ([1]; Tissue biodistribution: Spleen) was 1.05 ± 0.15 %ID/g, the tissue uptake at 24 h ([1]; Tissue biodistribution: Spleen) was 0.39 ± 0.14 %ID/g and the tissue uptake at 72 h ([1]; Tissue biodistribution: Spleen) was 0.31 ± 0.08 %ID/g. For the same molecule, the tissue uptake at 168 h ([1]; Tissue biodistribution: Spleen) was 0.43 ± 0.13 %ID/g, the tissue uptake at 2 h ([1]; Tissue biodistribution: Tumor) was 30.8 ± 6.34 %ID/g and the tissue uptake at 6 h ([1]; Tissue biodistribution: Tumor) was 35.7 ± 5.05 %ID/g. It also gave a tissue uptake at 24 h ([1]; Tissue biodistribution: Tumor) of 37.9 ± 8.46 %ID/g, a tissue uptake at 72 h ([1]; Tissue biodistribution: Tumor) of 48.2 ± 10 %ID/g and a tissue uptake at 168 h ([1]; Tissue biodistribution: Tumor) of 44.3 ± 8.77 %ID/g. For the same molecule, the tissue to tissue ratio at 2 h ([1]; Tumor/Blood) was 38.4 ± 18.7, the tissue to tissue ratio at 6 h ([1]; Tumor/Blood) was 237 ± 57.6 and the tissue to tissue ratio at 24 h ([1]; Tumor/Blood) was 1150 ± 312. The tissue to tissue ratio at 72 h ([1]; Tumor/Blood) was 1690 ± 343, the tissue to tissue ratio at 168 h ([1]; Tumor/Blood) was 1630 ± 208 and the tissue to tissue ratio at 2 h ([1]; Tumor/Bone) was 44.7 ± 20.4. The tissue to tissue ratio at 6 h ([1]; Tumor/Bone) was 117 ± 45.7, the tissue to tissue ratio at 24 h ([1]; Tumor/Bone) was 200 ± 55.6 and the tissue to tissue ratio at 72 h ([1]; Tumor/Bone) was 223 ± 43.2. For the same molecule, the tissue to tissue ratio at 168 h ([1]; Tumor/Bone) was 170 ± 19.3, the tissue to tissue ratio at 2 h ([1]; Tumor/Kidney) was 0.24 ± 0.07 and the tissue to tissue ratio at 6 h ([1]; Tumor/Kidney) was 0.3 ± 0.05. For the same molecule, the tissue to tissue ratio at 24 h ([1]; Tumor/Kidney) was 2.59 ± 1.05, the tissue to tissue ratio at 72 h ([1]; Tumor/Kidney) was 37.5 ± 6.4 and the tissue to tissue ratio at 168 h ([1]; Tumor/Kidney) was 70.9 ± 22.8. For the same molecule, the “T/NT ratio Tumor/Bone” value [2] was 169.77 and the “T/NT ratio Tumor/Salivary Gland” value [2] was 422.38.
